Experiment [1] deals with PKCδ (h) (protein kinase C) (human), Q05655. The experiment can be described thus: cell-based or functional assay.
Experiment [2] addresses mitogen-activated protein kinase-activated protein kinase 2 (human MK2) (human), P49137. The experiment can be described thus: kinase inhibition, radiometric assay. As to conditions: modification not given.

mitogen-activated protein kinase-activated protein kinase 2 (human MK2) (human), P49137, sequence (P49137 46-400): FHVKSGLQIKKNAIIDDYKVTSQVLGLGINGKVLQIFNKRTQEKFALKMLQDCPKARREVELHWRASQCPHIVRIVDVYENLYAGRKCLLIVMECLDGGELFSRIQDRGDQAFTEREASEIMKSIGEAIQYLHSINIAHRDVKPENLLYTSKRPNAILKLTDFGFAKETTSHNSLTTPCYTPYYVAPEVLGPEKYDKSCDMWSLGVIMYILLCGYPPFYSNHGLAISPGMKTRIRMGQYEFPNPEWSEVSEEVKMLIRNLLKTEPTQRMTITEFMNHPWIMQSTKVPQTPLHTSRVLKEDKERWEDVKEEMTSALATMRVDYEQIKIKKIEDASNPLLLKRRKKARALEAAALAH
PKCδ (h) (protein kinase C) (human), Q05655, sequence (Q05655 whole entry, stated change not applied): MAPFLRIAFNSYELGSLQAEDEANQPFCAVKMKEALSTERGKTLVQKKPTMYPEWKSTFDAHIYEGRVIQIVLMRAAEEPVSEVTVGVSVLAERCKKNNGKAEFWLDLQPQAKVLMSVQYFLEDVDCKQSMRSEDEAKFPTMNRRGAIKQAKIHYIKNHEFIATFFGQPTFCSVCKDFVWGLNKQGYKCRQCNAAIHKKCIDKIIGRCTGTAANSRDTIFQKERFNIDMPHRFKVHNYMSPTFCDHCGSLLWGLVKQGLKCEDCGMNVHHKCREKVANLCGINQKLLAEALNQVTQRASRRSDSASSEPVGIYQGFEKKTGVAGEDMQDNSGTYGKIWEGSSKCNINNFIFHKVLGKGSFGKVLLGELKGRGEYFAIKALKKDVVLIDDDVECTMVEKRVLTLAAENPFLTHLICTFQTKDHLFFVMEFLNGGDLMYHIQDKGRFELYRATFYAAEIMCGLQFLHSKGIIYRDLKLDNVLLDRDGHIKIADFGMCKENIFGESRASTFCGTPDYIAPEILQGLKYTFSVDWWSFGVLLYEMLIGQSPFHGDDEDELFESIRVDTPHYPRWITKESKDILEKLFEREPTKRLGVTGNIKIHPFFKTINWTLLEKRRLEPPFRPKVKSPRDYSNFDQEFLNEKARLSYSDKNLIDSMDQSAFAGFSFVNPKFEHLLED

YARAAARQARALARQLGVAA: the Kinase Activity, peptide at 300 µM, radiometric assay in experiment [1] was found to be 101%.
With YARAAARQARALNRQLGVAA, in experiment [1], the Kinase Activity, peptide at 300 µM, radiometric assay was determined as 105%.
Consider KAFAKLAARLYRLARQLGVAA, for which, in experiment [1], the Kinase Activity, peptide at 100 µM, radiometric assay amounted to 24%.
The term IC50 denotes the concentration needed to halve the response being measured. Low values mean higher potency, high ones lower potency. In experiment [2], YARAAARQARAKALNRQLAVA gave a half-inhibitory concentration (IC50) of 18.9 µM.
For FAKLAARLYRKALARQLGVAA, the IC50 in experiment [2] is 1.77 µM.
As for FAKLAARLYRLARQLGVAA, the Kinase Activity, peptide at 100 µM, radiometric assay in experiment [1] was determined as 40%.
For the molecule YARAAARQARAKALARQLAVA, the IC50 in experiment [2] is 28.4 µM.
In the case of WLRRIKAWLRRIKALNRQLGVAA, the IC50 in experiment [2] was determined as 0.737 µM. This molecule also had a Kinase Activity, peptide at 30 µM, radiometric assay in experiment [1] of 11%.

These data come from patent publication US20100158968A1.
